Experimental data taken from publication PMC5147500 (2016).

Molecular target: retromer (Homo sapiens, UniProt O75436)
Assay: ITC

- Kd: ~127 µM
B1: DMT1-II recycling signal (peptide)
chain: AQPELYLLNTMDADSLVSR
modifications: in presence of SNX3
